Experimental findings from PMC3398583, “Functional Cloning and Expression of the Schizophyllum commune Glucuronoyl Esterase Gene and Characterization of the Recombinant Enzyme” (Biotechnology Research International, 2012) are described below.

Usually Km stands for the substrate concentration at which the rate is half of its maximum. What is called kcat is the maximal rate divided by the concentration of active sites.

Substrate in the series: COC(=O)[C@H]1O[C@H](O[C@H]2[C@H](Oc3ccc([N+](=O)[O-])cc3)OC[C@@H](O)[C@@H]2O)[C@H](O)[C@@H](O)[C@@H]1OC
In words: purified protein. In kind it is biochemical, Schizophyllum commune. The following applies: 50 mM Na phosphate, pH 6.0, 0.08-0.4 mM substrate, 0.157 μM enzyme.

B1: rScGE (recombinant Schizophyllum commune glucuronoyl esterase) (Schizophyllum commune H4-8) (protein)
chain: LSAALLAIAAFANVASAQDCDTPATVSGYSNSALPDPFTFNDGSPVTTAEDWECRRSQILALIQGYESGAAPPEPESVTGTASGNSLSVQVSYGGKSITFNNSITYPSGTAPAEGWPVIIAYEFPSLPIPSNVATLSFQNSAMGKQDSTSSRGQGLFYDLYGSSSNASAMTAWAWGVSRIIDAIESTPDAKLNPAAVGVTGCSRNGKGALMAGALEPRVALTLPQESGSGGDACWRLSRYEEQQGSQVQTATEIVGENCWFSAGFDQYVNNLDSLPYDHHLLAALVAPRGLISYANTDYVWLSGMSSFGCMTAAHAVYEALGVPENHGFEQVGGHSHCQWPSQLDGSLNAFINKFLLGQDVSTDYFESNNQFNGVTWSESQWINWETPTLN
notes: synthetic gene, all 393 residues except start Met (native signal peptide 1-19 in the construct); pGAPZalpha-A alpha-factor secretion, C-terminal myc and His tags; Pichia pastoris SMD1168; glycosylated, 53 kD (46 kD after N-glycosidase F)
For B1, the Michaelis-Menten constant (Km) was determined as 250 µM and the kcat turned out to be 9.27 s⁻¹.
